According to patent publication US20250152742A1, “COMPOSITIONS AND METHODS FOR NEUROLOGICAL DISEASES” (Trames Bio, Inc., priority 2022, published 2025):

System: engineered chimeric receptor SEQ ID NO: 33 and its mutants (human α7-nAChR ligand binding domain / human GlyRα1 ion pore domain) in Lenti-X 293T cells
Assay: YFP fluorescence quenching anion reporter plate reader assay (percent quench, EC50)
Assay type: cell-based
Conditions: for YFP fluorescence quenching using CNL001 (percent quench): receptor named in row; for YFP fluorescence quenching using Varenicline, 3 nM var: ligand Varenicline 3 nM; for YFP fluorescence quenching using Varenicline, 30 nM var: ligand Varenicline 30 nM; for YFP fluorescence quenching using Varenicline, 300 nM var: ligand Varenicline 300 nM; for YFP fluorescence quenching using Varenicline, 500 nM var: ligand Varenicline 500 nM; for YFP fluorescence quenching using Varenicline, 1 uM var: ligand Varenicline 1 uM
Procedure, shortened: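 Lenti-X 293T cells co-expressing an anion-quenchable YFP were transiently transfected with receptor DNA, then ligand was added in NaI-substituted buffer (pH 7.2) after 30 min at 37 °C. Fluorescence was read about 2 min; percent quench = mean of last 10 s over 15 s pre-ligand baseline.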

B1: CODA1045: engineered receptor: R101W, Y210V in SEQ ID NO: 33 (protein)
chain: MRCSPGGVWLALAASLLHVSLQGEFQRKLYKELVKNYNPLERPVANDSQPLTVYFSLSLLQIMDVDEKNQVLTTNIWLQMSWTDHYLQWNVSEYPGVKTVWFPDGQIWKPDILLYNSADERFDATFHTNVLVNSSGHCQYLPPGIFKSSCPMDLKNFPMDVQTCKLKFGSWSYGGWSLDLQMQEADISGYIPNGEWDLVGIPGKRSERFVECCKEPYPDVTFTVTMRRRMGYYLIQMYIPSLLIVILSWISFWINMDAAPARVGLGITTVLTMTTQSSGSRASLPKVSYVKAIDIWMAVCLLFVFSALLEYAAVNFVSRQHKELLRFRRKRRHHKSPMLNLFQEDEAGEGRFNFSAYGMGPACLQAKDGISVKGANNSNTTNPPPAPSKSPEEMRKLFIQRAKKIDKISRIGFPMAFLIFNMFYWIIYKIVRREDVHNQ
modifications: synthetic sequence of chimeric LGIC
- YFP fluorescence quenching using CNL001 (percent quench) (1 nM CNL001, first column so headed): 0.804%
- YFP fluorescence quenching using CNL001 (percent quench) (1 nM CNL001, second column so headed): 11.275%
- YFP fluorescence quenching using TC-5619/Bradanicline (percent quench) (1 nM brd (TC-5619/Bradanicline)): −1.431%
- YFP fluorescence quenching using TC-5619/Bradanicline (percent quench) (3 nM brd (TC-5619/Bradanicline)): −14.993%
- YFP fluorescence quenching using CNL001 (percent quench) (10 nM CNL001, first column so headed): 15.843%
- YFP fluorescence quenching using CNL001 (percent quench) (10 nM CNL001, second column so headed): 16.619%
- YFP fluorescence quenching using TC-5619/Bradanicline (percent quench) (10 nM brd (TC-5619/Bradanicline)): −5.52%
- YFP fluorescence quenching using TC-6683 (percent quench) (30 nM TC-6683): 1.735%
- YFP fluorescence quenching using TC-5619/Bradanicline (percent quench) (30 nM brd (TC-5619/Bradanicline)): 15.49%
- YFP fluorescence quenching using CNL001 (percent quench) (50 nM CNL001, first column so headed): 15.205%
- YFP fluorescence quenching using CNL001 (percent quench) (50 nM CNL001, second column so headed): 18.771%
- YFP fluorescence quenching using ABT-126 (percent quench) (50 nM abt (ABT-126)): −24.16%
- YFP fluorescence quenching using CNL001 (percent quench) (100 nM CNL001, first column so headed): 9.332%
- YFP fluorescence quenching using CNL001 (percent quench) (100 nM CNL001, second column so headed): 18.218%
- YFP fluorescence quenching using ABT-126 (percent quench) (100 nM abt (ABT-126)): −24.7%
- YFP fluorescence quenching using TC-5619/Bradanicline (percent quench) (100 nM brd (TC-5619/Bradanicline)): 72.105%
- YFP fluorescence quenching using TC-6683 (percent quench) (300 nM TC-6683): 0.642%
- YFP fluorescence quenching using ABT-126 (percent quench) (300 nM abt (ABT-126)): −16.09%
- YFP fluorescence quenching using TC-5619/Bradanicline (percent quench) (300 nM brd (TC-5619/Bradanicline)): 71.411%
- YFP fluorescence quenching using CNL001 (percent quench) (1 uM CNL001, first column so headed): 35.294%
- YFP fluorescence quenching using CNL001 (percent quench) (1 uM CNL001, second column so headed): 36.542%
- YFP fluorescence quenching using ABT-126 (percent quench) (1 uM abt (ABT-126)): −11.61%
- YFP fluorescence quenching using TC-6683 (percent quench) (3 uM TC-6683): 2.403%
- YFP fluorescence quenching (percent quench) (10 uM ach (acetylcholine)): −2.52%
- YFP fluorescence quenching using TC-6683 (percent quench) (30 uM TC-6683): 6.006%
- YFP fluorescence quenching using TC-6683 (percent quench) (100 uM TC-6683): −4.277%
- YFP fluorescence quenching (percent quench) (100 uM ach (acetylcholine)): −11.98%
- YFP fluorescence quenching (percent quench) (300 uM ach (acetylcholine)): −16.71%
- YFP fluorescence quenching (percent quench) (500 uM ach (acetylcholine)): −12.87%
- YFP fluorescence quenching (percent quench) (1 mM ach (acetylcholine)): −14.41%
- YFP fluorescence quenching (percent quench) (3 mM ach (acetylcholine)): −7.4%
- YFP fluorescence quenching (percent quench) (10 mM ach (acetylcholine)): −1.5%
- YFP fluorescence quenching using Varenicline, 3 nM var (first column): 6.745
- YFP fluorescence quenching using Varenicline, 3 nM var (second column): 8.397
- YFP fluorescence quenching using Varenicline, 30 nM var (first column): 14.1
- YFP fluorescence quenching using Varenicline, 30 nM var (second column): 19.095
- YFP fluorescence quenching using Varenicline, 300 nM var (first column): 16.83
- YFP fluorescence quenching using Varenicline, 300 nM var (second column): 21.507
- YFP fluorescence quenching using Varenicline, 500 nM var (first column): 21.586
- YFP fluorescence quenching using Varenicline, 500 nM var (second column): 23.131
- YFP fluorescence quenching using Varenicline, 1 uM var (first column): 31.591
- YFP fluorescence quenching using Varenicline, 1 uM var (second column): 26.479
